These results are taken from patent US5580760, “FUSE binding protein and cDNA therefor” (The United States of America as represented by the …).

Data set [1] has as its target FBP full length (CMV expression) (Homo sapiens) (UniProt Q96AE4). Briefly: cell_activity. To be noted: CAT activation vs empty vector, U937 cells.
Another data set has as its target GST alone (UniProt P08515 P08515:1-218). Nature of the data set: EMSA; GST control. The note with it: tags: pGEX-2T without insert; label: 5'-32P. The method, then: Purified recombinant proteins were incubated with double stranded, ^32P labeled, oligonucleotide (Probe) in the presence or absence of the indicated quantity of unlabeled, double stranded oligonucleotide as competitor, and subjected to EMSA. (M. Fried and D. M. Crothers, *Nucleic Acids Res.* 9, 6505 (1981)).
DNA binding assays were performed with an equivalent amount of GST-FBP or GST alone incubated in 25 mM Tris, 200 mM Glycine, 1 mM EDTA, 0.5 mg/ml BSA, 0.1% Tween20, 10% glycerol, 100 µg/ml poly(dI:dC), and 0.2 ng of labeled probe. The probe was prepared by annealing two complementary synthetic oligonucleotides and 5' end labeling with T_4 polynucleotide kinase in the presence of γ-^32P-ATP. The top strand of the FUSE oligonucleotide was 5'-[…]-3'(SEQ ID NO: 11). The top strand of Mut A was 5'-GATCACAActacgtgctaggacgccGAATATAG-3' (SEQ ID NO: 12) (lower case indicates changes from FUSE oligomer sequence). The top strand of CRE was 5'-[…]-3' (SEQ ID NO: 13). The top strand of CTE was 5'-[…]-3' (SEQ ID NO: 14). Reaction mixtures were incubated 30 minutes at room temperature and protein-DNA complexes resolved by electrophoresis on a 4.2% acrylamide gel in 25 mM Tris, 200 mM Glycine, 1 mM EDTA buffer.
A general note: A gel shift assay detects complexes by their altered migration in electrophoresis.

The target of data set [2] is GST-FBP 278-511 insertion mutant 3 (Homo sapiens, UniProt Q96AE4 SEQ:278-511, insertion IRIR after M297). Briefly: EMSA. To be noted: tags: N-terminal GST; C-terminal KEIEQKVQE; label: 5'-32P.
The target in data set [3] is GST-FBP 278-511 insertion mutant 9 (Homo sapiens, UniProt Q96AE4 SEQ:278-511, insertion RGSG with deletion of P after 475). Nature of the data set: EMSA. To be noted: tags: N-terminal GST; C-terminal KEIEQKVQE; label: 5'-32P.
For data set [4], the target named is GST-FBP 278-511 insertion mutant 5 (Homo sapiens, UniProt Q96AE4 SEQ:278-511, insertion GIP after 336). Briefly: EMSA. The note with it: tags: N-terminal GST; C-terminal KEIEQKVQE; label: 5'-32P.
Data set [5] concerns the target GST-FBP 278-511 insertion mutant 2 (Homo sapiens, UniProt Q96AE4 SEQ:278-511, insertion IGSRIR after M297). Briefly: EMSA. To be noted: tags: N-terminal GST; C-terminal KEIEQKVQE; label: 5'-32P.
Data set [6] has as its target GST-FBP 278-511 insertion mutant 7 (Homo sapiens, UniProt Q96AE4 SEQ:278-511, insertion RIR after 373). Briefly: EMSA. To be noted: tags: N-terminal GST; C-terminal KEIEQKVQE; label: 5'-32P.
Data set [7] addresses GST-FBP 278-511 insertion mutant 8 (Homo sapiens, UniProt Q96AE4 SEQ:278-511, insertion RDPA with deletion of QS after 404). Nature of the data set: EMSA. The note with it: tags: N-terminal GST; C-terminal KEIEQKVQE; label: 5'-32P.
For data set [8], the target named is GST-FBP 278-511 insertion mutant 4 (Homo sapiens, UniProt Q96AE4 SEQ:278-511, Q333 replaced by PRIRE). Nature of the data set: EMSA. To be noted: tags: N-terminal GST; C-terminal KEIEQKVQE; label: 5'-32P.
A further data set concerns the target GST-FBP 278-372 (Homo sapiens, UniProt Q96AE4 SEQ:278-372). Briefly: EMSA. To be noted: tags: N-terminal GST; label: 5'-32P.
A further data set deals with GST-FBP 278-474 (Homo sapiens, UniProt Q96AE4 SEQ:278-474). Nature of the data set: EMSA. To be noted: tags: N-terminal GST; label: 5'-32P.
Another data set addresses GST-FBP 298-511 (Homo sapiens, UniProt Q96AE4 SEQ:298-511). Nature of the data set: EMSA. The note with it: tags: N-terminal GST; C-terminal KEIEQKVQE; label: 5'-32P.
The target of data set [9] is GST-FBP 278-511 insertion mutant 1 (Homo sapiens, UniProt Q96AE4 SEQ:278-511, insertion RIR between GST and FBP). Briefly: EMSA. To be noted: tags: N-terminal GST; C-terminal KEIEQKVQE; label: 5'-32P.
For a further data set, the target named is GST-FBP 278-511 (Homo sapiens, UniProt Q96AE4 SEQ:278-511). Nature of the data set: EMSA; same specificity as full length (FIG. 6C). The note with it: tags: N-terminal GST (pGEX-1); C-terminal KEIEQKVQE; label: 5'-32P.

With myc-CAT reporter with FUSE, in data set [1], the activity is 5 fold.

B1: FUSE (dsDNA)
DNA 1: GATCACAAAATAAAAAATCCCGAGGGAATATAG
DNA 2: CTATATTCCCTCGGGATTTTTTATTTTGTGATC
For the molecule B1, the binding result is listed as “no binding” with GST alone; “no binding” in [2]; “binds” in data set [3]; “no binding” in data set [4]; “no binding” in data set [5]; “binds” in [6]. Besides, the binding result in [7] is on record as “no binding”; in data set [8], “no binding”; with GST-FBP 278-372, “no binding”; with GST-FBP 278-474 it was “binds”; with GST-FBP 298-511, “no binding”; in [9], “binds”. Moreover, in the data set with GST-FBP 278-511, the binding result was “binds”.
